Test results as given in the supplement of paper PMC12855868.

B1: library; numbered along this chain (parent)
chain: MAAAGGARLLRAASAVLGGPAGRWLHHAGSRAGSSGLLRNRGPGGSAEASRSLSVSARARSSSEDKITVHFINRDGETLTTKGKVGDSLLDVVVENNLDIDGFGACEGTLACSTCHLIFEDHIYEKLDAITDEENDMLDLAYGLTDRSRLGCQICLTKSMDNMTVRVPETVADARQSIDVGKTS

Variants of: B1
Test: scaled log2 fold change in cell abundance, elesclomol vs control (0 = silent mean, 1 = nonsense mean) (scaled log2 ratio); higher = higher viability under elesclomol (loss of FDX1 cuproptosis function)
Details: glucose 10 mM
Procedure: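 Deep mutational scan of full-length human FDX1: a pooled saturation-mutagenesis ORF library (every residue 2-184 mutated to all 19 amino acids plus stop, and silent codons where available) was expressed by lentivirus in FDX1-knockout ABC1 (14 days) or HEK293T (11 days) cells grown with elesclomol (ES) or DMSO control. Variant abundance came from ORF sequencing. The log2 fold change (ES vs control, mean of duplicates) was centred on the silent-variant mean (0) and scaled to the nonsense-variant mean (1). Higher values mean greater viability under ES, i.e. loss of FDX1 function in cuproptosis.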

[1] = with ABC1 FDX1 KO, elesclomol 5 nM, 14 days
[2] = with HEK293T FDX1 KO, elesclomol 40 nM, 11 days
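Also: variant abundance is its share of total variant reads in each endpoint sample, from next-generation sequencing of the integrated ORF PCR-amplified out of genomic DNA.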

Variant | scaled log2 fold change [1] | scaled log2 fold change [2]
A2C | 0.441 | 0.0714
A2D | 0.173 | 0.487
A2E | -0.26 | 0.752
A2F | 0.0573 | -0.164
A2G | 0.451 | 
A2H | 0.1 | 0.132
A2I | -0.127 | -0.279
A2K | 0.0757 | -0.0727
A2L | 0.0991 | -0.056
A2M | 0.0773 | 0.0994
A2N | -0.0435 | 0.135
A2P | -0.0191 | 0.0189
A2Q | -0.344 | -0.344
A2R | 0.187 | 0.489
A2S | -0.234 | 0.215
A2T | 0.0597 | -0.252
A2V | 0.0325 | 0.473
A2W | -0.098 | -0.566
A2Y | -0.115 | -0.115
A3C | 0.227 | 0.756
A3D | 0.186 | 0.572
A3E | 0.299 | 1.21
A3F | -0.338 | 0.0034
A3G | 0.242 | -0.188

Variant | scaled log2 fold change [1] | scaled log2 fold change [2]
A3H | 0.204 | -0.0465
A3I | 0.134 | -0.0748
A3K | 0.135 | 0.17
A3L | -0.261 | 0.507
A3M | -0.131 | 0.396
A3N | -0.349 | -0.21
A3P | 0.16 | -0.173
A3Q | 0.292 | -0.249
A3R | 0.464 | -0.63
A3S | 0.514 | -0.0887
A3T | 0.122 | -0.0717
A3V | 0.0935 | 0.00813
A3W | 0.38 | 0.562
A3Y | -0.181 | 0.561
A4C | 0.0627 | -1.09
A4D | 0.12 | -0.0733
A4E | -0.03 | -0.0483
A4F | -0.326 | 0.068
A4G | -0.52 | -0.212
A4I | 0.158 | 0.102
A4K | 0.11 | 0.267
A4L | -0.0228 | 0.193
A4M | 0.0396 | -0.34
A4N | 0.0756 | -0.335

Variant | scaled log2 fold change [1] | scaled log2 fold change [2]
A4Q | -0.35 | 
A4R | -0.535 | -1.29
A4S | 0.221 | 0.988
A4T | 0.364 | 0.164
A4V | -0.0619 | -0.566
A4W | 0.154 | -0.542
A4Y | 0.257 | 0.669
G5A | -0.65 | 0.164
G5D | 0.153 | 0.63
G5E | -0.0118 | 0.75
G5F | 0.228 | 0.695
G5H | 0.507 | 1.08
G5I | 0.0847 | -0.0288
G5K | 0.104 | 0.00379
G5L | 0.0231 | -0.373
G5M | 0.245 | -0.441
G5N | 0.381 | 0.127
G5P | 0.0147 | -0.46
G5Q | 0.0157 | -0.646
G5R | -0.43 | -0.244
G5S | 0.203 | -0.121
G5T | -0.0306 | 0.915
G5V | 0.268 | -0.396
G5W | 0.225 | 0.578

Variant | scaled log2 fold change [1] | scaled log2 fold change [2]
G5Y | -0.325 | 0.00599
G6A | 0.239 | -0.652
G6C | 0.339 | 0.86
G6D | -0.00796 | -0.86
G6E | 0.0669 | 
G6F | 0.153 | -0.294
G6H | 0.23 | -1
G6I | 0.0452 | -0.31
G6K | 0.0797 | -0.166
G6L | 0.106 | 0.412
G6M | -0.159 | -0.651
G6N | 0.371 | 0.29
G6P | 0.13 | 0.0736
G6Q | 0.208 | -0.0414
G6R | 0.173 | 0.123
G6S | -0.502 | -0.676
G6V | -0.0163 | 0.974
G6W | 0.149 | 0.125
G6Y | -0.0292 | 0.639
A7C | 0.0253 | 0.515
A7D | 0.0271 | 0.843
A7E | 0.407 | 
A7F | 0.0991 | 0.612
A7G | 0.124 | -0.098

Variant | scaled log2 fold change [1] | scaled log2 fold change [2]
A7H | 0.443 | 0.0712
A7I | 0.0041 | -0.412
A7K | 0.136 | -0.253
A7L | 0.0503 | 0.262
A7M | -0.526 | 0.892
A7N | -0.22 | 0.0857
A7P | 0.316 | 
A7Q | -0.0571 | 
A7R | 0.122 | 
A7S | 0.0146 | 0.154
A7T | 0.268 | 
A7V | -0.5 | 0.903
A7W | 0.0847 | 0.227
A7Y | 0.0823 | 0.506
R8A | 0.393 | 0.0204
R8C | 0.116 | 1.05
R8D | 0.629 | -0.108
R8E | 0.00393 | -0.121
R8F | -0.388 | -0.798
R8H | 0.292 | -0.336
R8I | 0.286 | 0.291
R8K | 0.28 | -0.152
